Measurements published in US20210122804A1, “PEPTIDE LIGANDS FOR BINDING TO CD38” (BicycleTx Limited, priority 2018, published 2021).
*1 amine or outer side, *2 acyl side, *3 side chain or, on linkers, in order; H or OH if unused. Bridges are numbered along the chain shown (N, C = ends). Where no end group is shown, it is not given here. TATA = O=C(CC[*:1])N1CN(C(=O)CC[*:2])CN(C(=O)CC[*:3])C1; TBMB = c1c(C[*:1])cc(C[*:3])cc1C[*:2]

T1: human CD38 (Homo sapiens, UniProt P28907)
T1 sequence (P28907 1-300): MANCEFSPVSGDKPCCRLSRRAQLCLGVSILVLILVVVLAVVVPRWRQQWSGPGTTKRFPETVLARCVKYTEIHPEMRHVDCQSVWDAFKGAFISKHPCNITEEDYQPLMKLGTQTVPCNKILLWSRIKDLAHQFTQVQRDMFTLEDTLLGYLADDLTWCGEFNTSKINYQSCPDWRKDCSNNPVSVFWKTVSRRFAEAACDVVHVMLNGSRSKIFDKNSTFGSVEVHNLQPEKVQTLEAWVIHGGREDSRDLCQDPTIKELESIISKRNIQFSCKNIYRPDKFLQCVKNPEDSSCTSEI

T2: human CD38 (human, UniProt P28907 43-300, limits assumed)
T2 construct: construct used is not described; also called hCD38
T2 sequence (looked up): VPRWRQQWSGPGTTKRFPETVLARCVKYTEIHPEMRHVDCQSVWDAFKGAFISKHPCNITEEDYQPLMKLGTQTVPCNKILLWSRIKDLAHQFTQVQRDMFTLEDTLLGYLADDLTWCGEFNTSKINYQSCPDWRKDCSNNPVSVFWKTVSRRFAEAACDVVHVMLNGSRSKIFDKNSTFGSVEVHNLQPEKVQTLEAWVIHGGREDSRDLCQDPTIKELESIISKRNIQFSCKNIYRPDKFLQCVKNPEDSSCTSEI


Assays:
human CD38 [1] = biological target: T1, human CD38; assay: CD38 Competition Binding Assay (fluorescence polarisation); conditions: compared with all-thioether Reference Example 1
Procedure: CD38 Competition Binding Assay Affinity of various bicycle peptide compounds for human CD38 (Ki) was determined using a fluorescence polarisation assay, using the method reported by Lea et al (Expert Opin Drug Discov. 2011 6(1): 17-3) and using the following fluorescently labelled peptides […]-Sar6-K(F1) for TBMB derivatives and […]-Sar6-K(F1) for TATA derivatives where Fl is a fluorescein molecule.

human CD38 [2] = biological target: T2, human CD38; assay: fluorescence polarisation competition; tracer m10
human CD38 [3] = biological target: T2, human CD38; assay: fluorescence polarisation competition; tracer m11

Row | Ki (human CD38 [3]) | Molecule | further results
1 | – | [Ac]ACVPCADFPIWYC [BCY00009245] | affinity to CD38 (in words) (human CD38 [1]): high affinity
2 | – | ACFTLDGECFLLGENCA (linker 2-9-16 via TBMB, bicyclic) [66-08-52-N001] | Ki (human CD38 [2]): 562 nM
3 | 316 nM | ACYWNPFTACYSCTEN (linker 2-10-13 via TATA (inferred), bicyclic; also called 66-50-19-T02-N001) [66-50-19-T002-N001] | –
4 | 90 nM | ACYWNPFTACWSCEND (linker 2-10-13 via TATA (inferred), bicyclic) [66-50-16-T01-N001] | –
